Measured values: PMC4868700, “Use of a novel cytotoxic HEXIM1 peptide in the directed breast cancer therapy” (Oncotarget, 2015)
“Also recorded” adds a separate entry of the source. No end group written: not given here.

What was measured:
Assay type in all cases: cell-based, Human
MCF7 cells [1] = experiment: Internalization and intracellular distribution of FITC-labeled peptides, confocal microscopy; settings: MCF7, FITC-labeled peptides 30 μM, 30 min, washed three times with PBS, Figure 6A
Method: (§1) Figure 6 The un-tagged HEXIM1 BR peptide fails to enter cells by itself (A) MCF7 cells were cultured on glass slides overnight before incubation with the indicated FITC-labeled peptides (30 μM) for 30 min and subsequently analyzed by laser scanning confocal microscopy. Nuclei were visualized by DAPI. Cells treated with vehicle, DMSO (0.5%) were used as control. Representative fluorescent images are shown (bar, 10 μm). (B) The FITC-positive cells were quantified by flow cytometry. Data represent percentage of fluorescence-positive cells in total cell population. Results were summarized as mean ± SD of three independent experiments (***P < 0.0001, Student's t test).
To determine the ability of FITC-labeled peptides to enter the cells and to visualize intracellular distribution of the peptides, MCF7 cells were plated on 4-chamber glass cover slides (Lab-Tek) to adhere overnight, incubated with FITC-labeled peptides (30 μM) for 30 min, and then washed three times with PBS before being fixed and mounted with DAPI-containing mounting solution (Vectashield). Images were acquired using a Nikon A1R confocal laser scanning microscope equipped with a 60 × oil-immersion objective lens (SBIC-Nikon Imaging Centre).

MCF7 cells [2] = experiment: Internalized fluorescent peptide by flow cytometry; settings: MCF7, FITC-labeled peptides 30 μM, 30 min at 37°C, washed, trypsinized, mean of three independent experiments, Figure 6B
Method: as §1
MCF7 cells were plated on 6-cm culture dish to allow overnight adherence. FITC-labeled peptides (30 μM) were added to the cells, incubated for 30 min at 37°C, and subsequently washed three times with PBS. The cells were then trypsinized, collected by centrifugation, and finally resuspended in 500 μl ice-cold 2% FBS-containing PBS for flow cytometry analysis.

MCF7 cells [3] = experiment: Cell viability (CellTiter-Glo); settings: MCF7, different concentrations overnight, Figure 5A, 5C
Method: (§2) Cells were plated in clear-bottomed white walled 96-well plates (Corning) and incubated overnight. Cells were treated with indicated peptides in 1% FBS-containing media for overnight or indicated timings at 37°C. Cell viability was measured with CellTiter-Glo reagent (Promega) according to the manufacturer's instructions. For cytotoxicity assay, cells were plated in black walled 96-well plates (Corning) to allow them to adhere overnight. Upon treatment with a pan-caspase inhibitor, z-VAD-Fmk (100 μM) (Sigma) and subsequent treatment with LTV-tagged peptides, cytotoxicity induced was determined by CellTox cytotoxicity assay (Promega) 30 minutes after addition of peptides according to the manufacturer's instructions. Luminescence was determined using an Infinite 200 multiplate reader (Tecan).

MDA-MB-231 cells = experiment: Cell viability (CellTiter-Glo); settings: MDA-MB-231, different concentrations overnight, Figure 5B, 5D, S2
Method: as §2

Substance | internalization and intracellular distribution of fluorescent-labeled peptide (MCF7 cells [1]) | percentage of fluorescence-positive cells in total cell population (internalized fluorescent peptide) (MCF7 cells [2]) | cell viability (MCF7 cells [3]) | cell viability (MDA-MB-231 cells)
BR-FITC: fluorescent-labeled (FITC) BR peptide (QLGKKKHRRRPSKKKRHW; also: FITC label; UniProt O94992 147-164, looked up, fragment) | no fluorescent signal was observed | no entry | – | –
BR: untagged peptide from the basic region of HEXIM1 containing the HDM2 ubiquitination residues (a.a. 147–164) (QLGKKKHRRRPSKKKRHW; UniProt O94992 147-164, looked up, fragment) | – | – | had no effect on cell viability | had no effect on cell viability; also recorded: remained highly viable
